According to patent US20240309045A1, “NLRP3 INFLAMMASOME INHIBITORY PEPTIDE FOR TREATMENT OF INFLAMMATORY DISEASES” (AJOU UNIVERSITY INDUSTRY-ACADEMIC COOPERATION FOUNDATION, priority 2021, published 2024):

Legend:
NLRP3 inflammasome [1] = target: T1, NLRP3 inflammasome (Homo sapiens, UniProt Q96P20+Q9ULZ3); assay: NLRP3-mediated IL-1β secretion ELISA (LPS priming, nigericin activation); assay type: cell-based; conditions: THP1-derived macrophages, LPS-primed, peptide 1 to 20 μM (FIG. 1E)
T1 construct: THP1-derived macrophages were primed with LPS (10 ng/ml) for 3 hours and then treated with peptides; endogenous in cells; host or cells: THP1-derived macrophages
T1 sequence (Q96P20 whole entry): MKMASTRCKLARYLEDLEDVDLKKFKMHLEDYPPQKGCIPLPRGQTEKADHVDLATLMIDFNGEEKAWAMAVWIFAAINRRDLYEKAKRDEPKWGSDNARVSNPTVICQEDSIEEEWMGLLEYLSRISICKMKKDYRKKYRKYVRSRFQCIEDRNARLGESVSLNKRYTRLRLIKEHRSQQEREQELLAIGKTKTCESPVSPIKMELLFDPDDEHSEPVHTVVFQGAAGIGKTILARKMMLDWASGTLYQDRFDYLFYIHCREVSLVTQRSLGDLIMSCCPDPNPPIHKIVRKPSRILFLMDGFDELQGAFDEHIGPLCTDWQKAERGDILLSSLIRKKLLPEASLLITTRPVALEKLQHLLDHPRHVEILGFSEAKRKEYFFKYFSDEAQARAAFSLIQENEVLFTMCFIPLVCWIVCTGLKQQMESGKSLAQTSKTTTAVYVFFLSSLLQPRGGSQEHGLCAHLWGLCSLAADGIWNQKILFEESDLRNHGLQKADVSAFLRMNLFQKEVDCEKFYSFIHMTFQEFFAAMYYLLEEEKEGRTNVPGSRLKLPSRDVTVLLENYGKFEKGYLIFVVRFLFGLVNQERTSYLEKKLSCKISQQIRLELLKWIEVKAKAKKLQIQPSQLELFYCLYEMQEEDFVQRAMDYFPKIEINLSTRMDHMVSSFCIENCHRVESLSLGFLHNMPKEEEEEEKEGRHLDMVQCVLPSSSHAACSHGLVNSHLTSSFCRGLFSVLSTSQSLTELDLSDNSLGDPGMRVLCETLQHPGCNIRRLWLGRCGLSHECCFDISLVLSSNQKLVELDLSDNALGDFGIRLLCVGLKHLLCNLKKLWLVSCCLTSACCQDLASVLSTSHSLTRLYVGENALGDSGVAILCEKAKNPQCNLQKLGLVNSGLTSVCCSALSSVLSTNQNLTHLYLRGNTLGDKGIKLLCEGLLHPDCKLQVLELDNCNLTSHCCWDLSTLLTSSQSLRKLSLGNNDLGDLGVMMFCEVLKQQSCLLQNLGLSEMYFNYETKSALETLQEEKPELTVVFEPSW
T1 sequence (Q9ULZ3 whole entry): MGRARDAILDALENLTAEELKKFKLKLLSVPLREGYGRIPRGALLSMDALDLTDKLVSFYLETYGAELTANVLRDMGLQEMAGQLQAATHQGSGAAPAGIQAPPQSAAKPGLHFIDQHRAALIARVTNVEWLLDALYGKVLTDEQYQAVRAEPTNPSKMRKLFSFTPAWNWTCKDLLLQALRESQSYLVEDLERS
Experimental: (§1) THP1-derived macrophages were seeded at a density of […] in a 96-well plate (BD Biosciences) and grown overnight. The next day, the cells were primed with LPS (Sigma-Aldrich) at a concentration of 10 ng/ml or human tumor necrosis factor alpha (TNF-α; R&D Systems, Minneapolis, Minn., USA) at a concentration of 100 ng/ml for 3 hours, and then treated with peptides at different concentrations for 1 hour. In order to activate the NLRP3 pathway, LPS-primed cells were stimulated for 2 hours with […] nigericin (Invivogen, Carlsbad, CA, USA), which is a known NLRP3 activator. After 6 hours of treatment, the secretion levels of IL-1β and IL-18 were evaluated using a Human IL-1β Uncoated ELISA Kit (Invitrogen) and a Human IL-18 ELISA kit (RayBiotech, Norcross, GA, USA), respectively. The secretion levels of IL-8 and TNF-α were analyzed using a Human IL-8 ELISA kit and a TNF-α ELISA Kit (Invitrogen), respectively. In all experiments, absorbance was analyzed at an appropriate wavelength using a microplate spectrophotometry system (Molecular Devices Inc., Silicon Valley, CA, USA).
(§2) Overall, activation of the NLRP3 inflammasome results not only in cleavage of pro-IL-1β and pro-IL-18, but also in release of active IL-1β and IL-18 and other soluble inflammatory mediators. Thus, NIP was mainly evaluated for regulatory effect on the NLPR3-mediated pathway through the assessment of IL-1β secretion. […]

NLRP3 inflammasome [2] = target: T1, NLRP3 inflammasome; assay: NLRP3-mediated IL-18 secretion ELISA (LPS priming, nigericin activation); assay type: cell-based; conditions: THP1-derived macrophages, LPS-primed, nigericin (FIG. 1E, 4B)
Experimental: as §1, §2

Inhibition of NLPR3-mediated IL-1β secretion (NLRP3 inflammasome [1]): did not have the ability to inhibit
Inhibition of IL-18 secretion (NLRP3 inflammasome [2]): did not have the ability to inhibit
Sequence: DALDLTDKLVS (NLRP3/ASC-inhibitory peptide 7 (NIP7)) [evaluated fused at the N-terminus with penetratin]
